T1: ADAMTS4 (human, UniProt O75173 213-685, limits assumed)
T1 sequence (looked up): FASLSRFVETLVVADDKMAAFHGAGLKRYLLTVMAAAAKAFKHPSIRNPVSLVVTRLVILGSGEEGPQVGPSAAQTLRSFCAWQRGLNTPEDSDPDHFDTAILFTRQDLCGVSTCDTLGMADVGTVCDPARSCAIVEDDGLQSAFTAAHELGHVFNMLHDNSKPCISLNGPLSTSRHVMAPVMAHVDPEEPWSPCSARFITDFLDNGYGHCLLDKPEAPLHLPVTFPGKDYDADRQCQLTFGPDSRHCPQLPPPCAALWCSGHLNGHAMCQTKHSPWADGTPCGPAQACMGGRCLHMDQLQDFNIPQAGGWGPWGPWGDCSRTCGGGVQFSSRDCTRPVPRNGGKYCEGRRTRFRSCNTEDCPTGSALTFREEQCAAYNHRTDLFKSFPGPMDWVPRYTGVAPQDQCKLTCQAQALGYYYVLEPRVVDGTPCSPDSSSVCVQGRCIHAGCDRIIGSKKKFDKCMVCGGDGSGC

T2: ADAMTS5 (human, UniProt Q9UNA0 262-622, limits assumed)
T2 sequence (looked up): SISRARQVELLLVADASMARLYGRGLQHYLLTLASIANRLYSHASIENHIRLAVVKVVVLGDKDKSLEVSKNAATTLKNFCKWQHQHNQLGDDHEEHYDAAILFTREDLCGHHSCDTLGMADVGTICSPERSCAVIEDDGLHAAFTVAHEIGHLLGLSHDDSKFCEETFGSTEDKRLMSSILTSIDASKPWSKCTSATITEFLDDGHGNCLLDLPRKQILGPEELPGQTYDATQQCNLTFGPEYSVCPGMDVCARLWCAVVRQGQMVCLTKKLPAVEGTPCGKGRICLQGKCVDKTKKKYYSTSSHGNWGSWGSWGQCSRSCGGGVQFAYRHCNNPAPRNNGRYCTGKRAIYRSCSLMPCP

B1: Variant A2M, bait region SEQ ID NO 119 (other)
chain: SVSGKPQYMVLVPSLLHTETTEKGCVLLSYLNETVTVSASLESVRGNRSLFTDLEAENDVLHCVAFAVPKSSSNEEVMFLTVQVKGPTQEFKKRTTVMVKNEDSLVFVQTDKSIYKPGQTVKFRVVSMDENFHPLNELIPLVYIQDPKGNRIAQWQSFQLEGGLKQFSFPLSSEPFQGSYKVVVQKKSGGRTEHPFTVEEFVLPKFEVQVTVPKIITILEEEMNVSVCGLYTYGKPVPGHVTVSICRKYSDASDCHGEDSQAFCEKFSGQLNSHGCFYQQVKTKVFQLKRKEYEMKLHTEAQIQEEGTVVELTGRQSSEITRTITKLSFVKVDSHFRQGIPFFGQVRLVDGKGVPIPNKVIFIRGNEANYYSNATTDEHGLVQFSINTTNVMGTSLTVRVNYKDRSPCYGYQWVSEEHEEAHHTAYLVFSPSKSFVHLEPMSHELPCGHTQTVQAHYILNGGTLLGLKKLSFYYLIMAKGGIVRTGTHGLLVKQEDMKGHFSISIPVKSDIAPVARLLIYAVLPTGDVIGDSAKYDVENCLANKVDLSFSPSQSLPASHAHLRVTAAPQSVCALRAVDQSVLLMKPDAELSASSVYNLLPEKDLTGFPGPLNDQDDEDCINRHNVYINGITYTPVSSTNEKDMYSFLEDMGLKAFTNSKIRKPKMCPQLELQQYEMHGPEGLRVGEAIPMSIPIPENFFGVKEEEGLGSKLRKYFPETWIWDLVVVNSAGVAEVGVTVPDTITEWKAGAFCLSEDAGLGISSTASLRAFQPFFVELTMPYSVIRGEAFTLKATVLNYLPKCIRVSVQLEASPAFLAVPVEKEQAPHCICANGRQTVSWAVTPKSLGNVNFTVSAEALESQELCGTEVPSVPEHGRKDTVIKPLLVEPEGLEKETTFNSLLCPSGGEVSEELSLKLPPNVVEESARASVSVLGDILGSAMQNTQNLLQMPYGCGEQNMVLFAPNIYVLDYLNETQQLTPEIKSKAIGYLNTGYQRQLNYKHYDGSYSTFGERYGRNQGNTWLTAFVLKTFAQARAYIFIDEAHITQALIWLSQRQKDNGCFRSSGSLLNNAIKGGVEDEVTLSAYITIALLEIPLTVTHPVVRNALFCLESAWKTAQEGDHGSHVYTKALLAYAFALAGNQDKRKEVLKSLNEEAVKKDNSVHWERPQKPKAPVGHFYEPQAPSAEVEMTSYVLLAYLTAQPAPTSEDLTSATNIVKWITKQQNAQGGFSSTQDTVVALHALSKYGAATFTRTGKAAQVTIQSSGTFSSKFQVDNNNRLLLQQVSLPELPGEYSMKVTGEGCVYLQTSLKYNILPEKEEFPFALGVQTLPQTCDEPKAHTSFQISLSVSYTGSRSASNMAIVDVKMVSGFIPLKPTVKMLERSNHVSRTEVSSNHVLIYLDKVSNQTLSLFFTVLQDVPVRDLKPAIVKVYDYYETDEFAIAEYNAPCSKDLGNADYKDDDDKGASHHHHHH
B2: Variant A2M, bait region SEQ ID NO 120 (other)
chain: SVSGKPQYMVLVPSLLHTETTEKGCVLLSYLNETVTVSASLESVRGNRSLFTDLEAENDVLHCVAFAVPKSSSNEEVMFLTVQVKGPTQEFKKRTTVMVKNEDSLVFVQTDKSIYKPGQTVKFRVVSMDENFHPLNELIPLVYIQDPKGNRIAQWQSFQLEGGLKQFSFPLSSEPFQGSYKVVVQKKSGGRTEHPFTVEEFVLPKFEVQVTVPKIITILEEEMNVSVCGLYTYGKPVPGHVTVSICRKYSDASDCHGEDSQAFCEKFSGQLNSHGCFYQQVKTKVFQLKRKEYEMKLHTEAQIQEEGTVVELTGRQSSEITRTITKLSFVKVDSHFRQGIPFFGQVRLVDGKGVPIPNKVIFIRGNEANYYSNATTDEHGLVQFSINTTNVMGTSLTVRVNYKDRSPCYGYQWVSEEHEEAHHTAYLVFSPSKSFVHLEPMSHELPCGHTQTVQAHYILNGGTLLGLKKLSFYYLIMAKGGIVRTGTHGLLVKQEDMKGHFSISIPVKSDIAPVARLLIYAVLPTGDVIGDSAKYDVENCLANKVDLSFSPSQSLPASHAHLRVTAAPQSVCALRAVDQSVLLMKPDAELSASSVYNLLPEKDLTGFPGPLNDQDDEDCINRHNVYINGITYTPVSSTNEKDMYSFLEDMGLKAFTNSKIRKPKMCPQLEEEGVEEGKEEEGLGSGPAGAARGSELEGRGSPTEGEARGSKLRKYFPETWIWDLVVVNSAGVAEVGVTVPDTITEWKAGAFCLSEDAGLGISSTASLRAFQPFFVELTMPYSVIRGEAFTLKATVLNYLPKCIRVSVQLEASPAFLAVPVEKEQAPHCICANGRQTVSWAVTPKSLGNVNFTVSAEALESQELCGTEVPSVPEHGRKDTVIKPLLVEPEGLEKETTFNSLLCPSGGEVSEELSLKLPPNVVEESARASVSVLGDILGSAMQNTQNLLQMPYGCGEQNMVLFAPNIYVLDYLNETQQLTPEIKSKAIGYLNTGYQRQLNYKHYDGSYSTFGERYGRNQGNTWLTAFVLKTFAQARAYIFIDEAHITQALIWLSQRQKDNGCFRSSGSLLNNAIKGGVEDEVTLSAYITIALLEIPLTVTHPVVRNALFCLESAWKTAQEGDHGSHVYTKALLAYAFALAGNQDKRKEVLKSLNEEAVKKDNSVHWERPQKPKAPVGHFYEPQAPSAEVEMTSYVLLAYLTAQPAPTSEDLTSATNIVKWITKQQNAQGGFSSTQDTVVALHALSKYGAATFTRTGKAAQVTIQSSGTFSSKFQVDNNNRLLLQQVSLPELPGEYSMKVTGEGCVYLQTSLKYNILPEKEEFPFALGVQTLPQTCDEPKAHTSFQISLSVSYTGSRSASNMAIVDVKMVSGFIPLKPTVKMLERSNHVSRTEVSSNHVLIYLDKVSNQTLSLFFTVLQDVPVRDLKPAIVKVYDYYETDEFAIAEYNAPCSKDLGNADYKDDDDKGASHHHHHH
B3: Variant A2M, bait region SEQ ID NO 117 (other)
chain: SVSGKPQYMVLVPSLLHTETTEKGCVLLSYLNETVTVSASLESVRGNRSLFTDLEAENDVLHCVAFAVPKSSSNEEVMFLTVQVKGPTQEFKKRTTVMVKNEDSLVFVQTDKSIYKPGQTVKFRVVSMDENFHPLNELIPLVYIQDPKGNRIAQWQSFQLEGGLKQFSFPLSSEPFQGSYKVVVQKKSGGRTEHPFTVEEFVLPKFEVQVTVPKIITILEEEMNVSVCGLYTYGKPVPGHVTVSICRKYSDASDCHGEDSQAFCEKFSGQLNSHGCFYQQVKTKVFQLKRKEYEMKLHTEAQIQEEGTVVELTGRQSSEITRTITKLSFVKVDSHFRQGIPFFGQVRLVDGKGVPIPNKVIFIRGNEANYYSNATTDEHGLVQFSINTTNVMGTSLTVRVNYKDRSPCYGYQWVSEEHEEAHHTAYLVFSPSKSFVHLEPMSHELPCGHTQTVQAHYILNGGTLLGLKKLSFYYLIMAKGGIVRTGTHGLLVKQEDMKGHFSISIPVKSDIAPVARLLIYAVLPTGDVIGDSAKYDVENCLANKVDLSFSPSQSLPASHAHLRVTAAPQSVCALRAVDQSVLLMKPDAELSASSVYNLLPEKDLTGFPGPLNDQDDEDCINRHNVYINGITYTPVSSTNEKDMYSFLEDMGLKAFTNSKIRKPKMCPQLEENFFGVTEGEARGSPTSEDLVVQKEEEGLGSEAIPMSIPKLRKYFPETWIWDLVVVNSAGVAEVGVTVPDTITEWKAGAFCLSEDAGLGISSTASLRAFQPFFVELTMPYSVIRGEAFTLKATVLNYLPKCIRVSVQLEASPAFLAVPVEKEQAPHCICANGRQTVSWAVTPKSLGNVNFTVSAEALESQELCGTEVPSVPEHGRKDTVIKPLLVEPEGLEKETTFNSLLCPSGGEVSEELSLKLPPNVVEESARASVSVLGDILGSAMQNTQNLLQMPYGCGEQNMVLFAPNIYVLDYLNETQQLTPEIKSKAIGYLNTGYQRQLNYKHYDGSYSTFGERYGRNQGNTWLTAFVLKTFAQARAYIFIDEAHITQALIWLSQRQKDNGCFRSSGSLLNNAIKGGVEDEVTLSAYITIALLEIPLTVTHPVVRNALFCLESAWKTAQEGDHGSHVYTKALLAYAFALAGNQDKRKEVLKSLNEEAVKKDNSVHWERPQKPKAPVGHFYEPQAPSAEVEMTSYVLLAYLTAQPAPTSEDLTSATNIVKWITKQQNAQGGFSSTQDTVVALHALSKYGAATFTRTGKAAQVTIQSSGTFSSKFQVDNNNRLLLQQVSLPELPGEYSMKVTGEGCVYLQTSLKYNILPEKEEFPFALGVQTLPQTCDEPKAHTSFQISLSVSYTGSRSASNMAIVDVKMVSGFIPLKPTVKMLERSNHVSRTEVSSNHVLIYLDKVSNQTLSLFFTVLQDVPVRDLKPAIVKVYDYYETDEFAIAEYNAPCSKDLGNADYKDDDDKGASHHHHHH

Consider 3 molecules from US20230250154A1 (CYTONICS, published 2023).

The target in one assay is MMP13 (human, UniProt P45452 104-471, limits assumed). In words: cell-based or functional assay.
With B1, the “Protease Inhibition (% of WT)” value is 90 % of WT.
Same read-out and setting: the value for B2 was 121 % of WT.
On the same count and under the same terms, the result for B3 reads 11 % of WT.

The target of a further assay is T1, ADAMTS4. Briefly: cell-based or functional assay.
Turning to B1, the “Protease Inhibition (% of WT)” value was 100 % of WT.
Still for that read-out and setting: the value for B2 was 88 % of WT; that for B3 was 100 % of WT.

In the next assay the target is T2, ADAMTS5. Briefly: cell-based or functional assay.
B1: the “Protease Inhibition (% of WT)” value was 170 % of WT.
Consider B2, for which the “Protease Inhibition (% of WT)” value was 100 % of WT.
Same read-out and setting: the result for B3 reads 190 % of WT.
